We go through three molecules from patent US20060193771A1.

The target in assay [1] is T1, recombinant soluble CD30 (sCD30) produced in E. coli (human).
T1 sequence: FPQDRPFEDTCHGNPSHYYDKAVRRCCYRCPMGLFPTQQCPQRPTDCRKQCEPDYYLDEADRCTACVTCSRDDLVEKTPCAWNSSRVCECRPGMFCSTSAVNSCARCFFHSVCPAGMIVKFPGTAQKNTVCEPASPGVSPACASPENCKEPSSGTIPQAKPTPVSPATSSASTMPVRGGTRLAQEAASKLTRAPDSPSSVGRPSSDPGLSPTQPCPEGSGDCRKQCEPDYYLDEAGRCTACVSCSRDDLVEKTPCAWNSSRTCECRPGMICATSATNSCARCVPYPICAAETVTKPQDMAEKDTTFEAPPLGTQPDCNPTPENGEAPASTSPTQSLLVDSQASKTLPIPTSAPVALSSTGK
As to the kind of experiment: SPR (BIAcore), sCD30 immobilized.

The target of assay [2] is human CD30, native, expressed on cells (human). As to the kind of experiment: cell-based or functional assay.
Assay [3] shares this target. The assay can be described thus: competitive FACS on L540 cells, unlabeled MAb 2.5 µg/ml; competitor: biotin-T6.
Assay [4] has the same target. The assay can be described thus: competitive FACS on L540 cells, unlabeled MAb 2.5 µg/ml; competitor: biotin-T14.
For assay [5] the target is unchanged. As to the kind of experiment: competitive FACS on L540 cells, unlabeled MAb 2.5 µg/ml; competitor: biotin-T24.
Assay [6] shares this target. The assay can be described thus: FACS, L540 cells, MAb 5 µg/ml; HeFi-I is the control itself.
Assay [7] has as its target T1, recombinant soluble CD30 (sCD30) produced in E. coli (human). The assay can be described thus: SPR (BIAcore), sCD30 immobilized; not corrected for bivalency.
In assay [8] the target is human CD30, native, expressed on cells (human). The assay can be described thus: competitive FACS on L540 cells, unlabeled MAb 2.5 µg/ml; competitor: biotin-HRS-4.
In assay [9] the target is T1, recombinant soluble CD30 (sCD30) produced in E. coli (human). The assay can be described thus: indirect ELISA, sCD30 coated. A general note: An ELISA detects its analyte on a solid surface through an enzyme-linked reagent.
Assay [10] addresses human CD30, native, expressed on cells (human). The assay can be described thus: competitive FACS on L540 cells, unlabeled MAb 2.5 µg/ml; competitor: biotin-T25.
Another assay has as its target T2, CD30-Fc (human).
T2 sequence: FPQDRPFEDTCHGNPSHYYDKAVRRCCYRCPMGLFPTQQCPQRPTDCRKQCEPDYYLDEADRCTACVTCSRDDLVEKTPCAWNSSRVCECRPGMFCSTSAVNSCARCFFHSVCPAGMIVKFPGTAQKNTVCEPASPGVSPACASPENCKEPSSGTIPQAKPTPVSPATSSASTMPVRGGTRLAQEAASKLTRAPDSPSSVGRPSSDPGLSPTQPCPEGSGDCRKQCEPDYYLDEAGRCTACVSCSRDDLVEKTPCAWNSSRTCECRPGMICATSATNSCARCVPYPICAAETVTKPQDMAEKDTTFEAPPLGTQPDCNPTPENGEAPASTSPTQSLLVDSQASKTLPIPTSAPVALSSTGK
As to the kind of experiment: affinity of the MAb; ELISA using CD30-Fc.

For assay [11], the target named is human CD30, native, expressed on cells (human). The assay can be described thus: FACS, L428 cells, MAb 5 µg/ml; HeFi-I is the control itself.
Assay [12] shares this target. As to the kind of experiment: competitive FACS on L540 cells, unlabeled MAb 2.5 µg/ml; competitor: biotin-HeFi-I.

B1: CL2(scFv)-PE38 (scFv, V domains shown)
VH: EVQLKQSGTELVKPGASVKLSCKASGYTFTSYWMHWVKQRPGQGLEWIGNINPSNGGTNYNEKFKSKATLTIDKSSSTAYMQLSSLTSEDSAVYYCARRTETAQASPFAYWGQGTLVTVSS
VL: DIVMTQSHKFMSTSVGDRVSVTCKASQNVGTNVAWYQQKPGQSPKALIYSASTRYSGVPDRFTGSGSGTDFTLTISNVQSEDLAEYFCQQYNSYPFTFGSGTKLEIK
With B1, in assay [1], the Kd (usually the free concentration of one partner at which half of the binding sites on the other are occupied at equilibrium, for simple one-to-one binding) stood at 56 nM; the koff (commonly a measure of how fast the partners let go of each other) is 0.0022 s⁻¹; the kon (usually the rate constant with which the complex forms) was 38000 M⁻¹ s⁻¹. Moreover, in [2], the IC50, cytotoxicity on A431 cells stably transfected with CD30 amounted to 2.5 ng/mL.

B2: HeFi-I MAb (antibody, V domains shown)
VH: EVKLVESGGGLVQPGGSLRLSCATSGFTFSDYYMNWVRQPPGKALEWLGFIRNKANGYTTEFSASVMGRFTISRDDSQSILYLQMNTLRAEDSATYYCARDPPYGNPHYYAMDYWGQGTSVTVSS
VL: DIVLTQSPASLAVSLGQRATISCRASKSVSASGYNYMHWYQQKAGQPPKLLIHLASNLESGVPARFSGSGSGTDFTLNIHPVEEEDASTYYCQHSGELPFTFGSGTKLEIK
For B2, the inhibition of the binding of biotin-MAb (%) in assay [3] is 0%; in assay [4], 0%; in assay [5], 33.4%; in [8], 0%; in assay [10] it was 8.4%; in assay [12], 98%. Further, the relative reactivity in FACS (% of control) in assay [6] and in assay [11] was 100 % of control in each case. Besides, the Kd amounted to 7.8 nM in [7] and 2.4 nM in the assay with CD30-Fc (human). Moreover, the koff in assay [7] stood at 0.00054 s⁻¹. Further, the kon in assay [7] was found to be 72000 M⁻¹ s⁻¹. The titer in ELISA in assay [9] worked out at 105 mL/µg.

B3: T7 MAb (antibody, V domains shown)
VH: QVQLQQSGAELVRPGSSVKISCKASGYTFSSYWMNWMKQRPGQGLEWIGQIYPGDDDTNYNGKFKGKATLTADKSSSTAYMQLSSLTSEDSAVYFCARRETGRGAWFTYWGQGTLVTVSA
VL: DIVLTQSPASLAVSLGQRATISCRASESLEYYGTTLMQWYQQKPGQPPKLLIYAASNVESGVPARFSGSGSGTDFSLNIHPVEEDDIAMYFCHQSRKVPSTFGGGTKLEIK
In turn, B3 yielded a Kd in the assay with CD30-Fc (human) of 3.5 nM.
